Test results taken from patent US20230381229A1.

Legend:
[1] = target: T1, human CD96, full-length, expressed on transfected HEK293 cells (human) (UniProt P40200); test: flow cytometry, HEK293 transfectants, 100 nM
T1 sequence: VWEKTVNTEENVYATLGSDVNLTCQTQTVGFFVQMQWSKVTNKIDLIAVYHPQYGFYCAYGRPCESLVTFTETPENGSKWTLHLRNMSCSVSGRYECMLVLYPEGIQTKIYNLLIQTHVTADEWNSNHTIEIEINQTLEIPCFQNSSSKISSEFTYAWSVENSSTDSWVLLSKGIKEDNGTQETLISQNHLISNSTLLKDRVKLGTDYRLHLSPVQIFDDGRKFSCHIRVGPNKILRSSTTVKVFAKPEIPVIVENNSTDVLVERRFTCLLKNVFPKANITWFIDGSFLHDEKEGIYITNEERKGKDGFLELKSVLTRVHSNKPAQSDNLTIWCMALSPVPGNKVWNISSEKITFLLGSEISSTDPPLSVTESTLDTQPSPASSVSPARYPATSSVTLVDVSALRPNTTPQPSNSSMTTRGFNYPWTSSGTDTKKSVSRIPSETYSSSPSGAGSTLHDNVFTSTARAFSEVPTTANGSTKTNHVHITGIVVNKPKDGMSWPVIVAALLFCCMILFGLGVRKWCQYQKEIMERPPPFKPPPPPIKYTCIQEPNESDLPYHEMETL

[2] = target: T2, human TIGIT, full-length, expressed on transfected HEK293 cells (human); test: flow cytometry, HEK293 transfectants, 100 nM
T2 sequence: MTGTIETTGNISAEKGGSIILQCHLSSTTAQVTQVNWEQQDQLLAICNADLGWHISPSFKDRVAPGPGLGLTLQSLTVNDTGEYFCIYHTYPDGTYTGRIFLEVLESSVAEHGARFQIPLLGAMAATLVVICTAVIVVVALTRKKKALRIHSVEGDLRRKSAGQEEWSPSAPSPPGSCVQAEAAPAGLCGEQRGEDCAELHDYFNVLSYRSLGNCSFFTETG

[3] = target: CD112R (Homo sapiens (Human)) (UniProt Q6DKI7); test: flow cytometry, transfected HEK293 cells, 100 nM
[4] = target: T3, human CD226 (human); test: flow cytometry, transfected HEK293 cells, 100 nM
T3 sequence: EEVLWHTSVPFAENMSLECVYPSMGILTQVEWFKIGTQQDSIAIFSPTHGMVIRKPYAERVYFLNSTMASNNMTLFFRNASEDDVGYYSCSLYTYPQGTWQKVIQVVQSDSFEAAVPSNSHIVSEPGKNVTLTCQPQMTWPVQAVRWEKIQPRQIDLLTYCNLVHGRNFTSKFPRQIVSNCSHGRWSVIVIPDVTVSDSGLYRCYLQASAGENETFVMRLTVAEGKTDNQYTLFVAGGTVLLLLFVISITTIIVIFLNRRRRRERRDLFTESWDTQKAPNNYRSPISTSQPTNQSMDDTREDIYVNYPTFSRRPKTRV

[5] = target: T4, human CD96 (human) (UniProt P40200); test: flow cytometry, transfected HEK293 cells, 100 nM
T4 sequence: T1 sequence

[6] = target: human TIGIT (human); test: flow cytometry, transfected HEK293 cells, 100 nM
[7] = target: CD80 expressed on cells (Homo sapiens); test: flow cytometry, cells expressing CD80
[8] = target: PD-1 expressed on cells (human); test: flow cytometry, cells expressing PD-1
[9] = target: CD112R (Homo sapiens (Human)) (UniProt Q6DKI7)
[10] = target: human PD-1 (human)
[11] = target: human TIGIT (human)
[12] = target: PD-1-Fc (Homo sapiens); test: ForteBio, PD-1-Fc
[13] = target: PD-1 expressed on cells (human); test: flow cytometry, Jurkat/PD-1 cells
Target sequence in this assay (chain, as listed by the source): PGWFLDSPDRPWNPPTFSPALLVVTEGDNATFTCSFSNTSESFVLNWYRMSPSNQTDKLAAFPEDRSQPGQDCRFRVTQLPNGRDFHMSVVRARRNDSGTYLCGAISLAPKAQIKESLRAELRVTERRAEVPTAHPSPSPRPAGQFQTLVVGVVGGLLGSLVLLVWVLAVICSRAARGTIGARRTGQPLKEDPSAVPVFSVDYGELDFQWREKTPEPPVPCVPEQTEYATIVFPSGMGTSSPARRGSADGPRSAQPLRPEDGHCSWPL

Sequence of CD112R (Homo sapiens (Human)) (Q6DKI7 whole entry): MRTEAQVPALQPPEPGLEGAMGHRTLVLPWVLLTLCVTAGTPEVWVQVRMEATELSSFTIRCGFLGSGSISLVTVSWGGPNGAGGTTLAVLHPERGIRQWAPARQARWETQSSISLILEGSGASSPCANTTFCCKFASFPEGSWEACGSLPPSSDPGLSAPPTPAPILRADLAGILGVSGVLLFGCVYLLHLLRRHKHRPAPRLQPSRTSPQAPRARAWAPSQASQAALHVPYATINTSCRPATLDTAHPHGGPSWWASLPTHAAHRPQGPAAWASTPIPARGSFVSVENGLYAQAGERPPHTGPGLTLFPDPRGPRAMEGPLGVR
Sequence of CD155 IgV Fc (P15151 21-142): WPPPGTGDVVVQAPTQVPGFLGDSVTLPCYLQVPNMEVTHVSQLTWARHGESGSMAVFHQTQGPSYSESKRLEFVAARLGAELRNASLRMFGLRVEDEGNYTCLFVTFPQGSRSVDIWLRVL
Sequence of PD-1-Fc (Homo sapiens) (chain, as listed by the source limits assumed): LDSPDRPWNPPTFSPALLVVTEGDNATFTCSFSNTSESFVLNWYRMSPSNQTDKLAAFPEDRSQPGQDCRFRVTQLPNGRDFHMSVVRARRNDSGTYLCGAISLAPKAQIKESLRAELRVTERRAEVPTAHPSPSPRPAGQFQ
Sequence of CD112 ECD-Fc (Fc fusion) (chain): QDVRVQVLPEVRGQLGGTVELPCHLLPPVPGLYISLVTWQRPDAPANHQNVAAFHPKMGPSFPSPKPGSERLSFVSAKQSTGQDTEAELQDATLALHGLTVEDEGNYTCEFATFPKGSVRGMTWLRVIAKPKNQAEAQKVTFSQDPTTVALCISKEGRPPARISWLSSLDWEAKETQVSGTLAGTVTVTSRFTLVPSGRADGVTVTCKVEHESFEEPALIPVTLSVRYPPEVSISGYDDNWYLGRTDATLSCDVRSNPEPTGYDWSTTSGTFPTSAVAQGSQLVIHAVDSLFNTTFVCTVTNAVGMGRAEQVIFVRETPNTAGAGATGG
Sequence of CTLA4-Fc (Fc fusion) (chain): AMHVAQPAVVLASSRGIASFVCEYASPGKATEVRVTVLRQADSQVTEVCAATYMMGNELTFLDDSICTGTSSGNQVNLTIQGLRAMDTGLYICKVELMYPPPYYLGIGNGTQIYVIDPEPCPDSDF
Sequence of human PD-1 (human) (chain, as listed by the source limits assumed): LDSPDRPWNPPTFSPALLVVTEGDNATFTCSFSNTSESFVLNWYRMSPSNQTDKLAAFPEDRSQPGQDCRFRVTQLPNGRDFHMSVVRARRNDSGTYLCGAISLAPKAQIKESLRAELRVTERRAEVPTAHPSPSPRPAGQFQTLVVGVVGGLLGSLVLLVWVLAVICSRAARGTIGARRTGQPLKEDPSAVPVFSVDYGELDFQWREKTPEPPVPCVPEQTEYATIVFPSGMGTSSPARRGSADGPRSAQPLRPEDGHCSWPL

Row | MFI at 20 nM [7] | MFI at 20 nM [8] | Fold Change Compared to WT PD-L1 [8] | Substance | also measured
1 | – | – | – | CD112 ECD-Fc (Fc fusion) | MFI at 100 nM [1]: 1100 MFI; MFI at 100 nM [2]: 29200 MFI
2 | – | – | – | CD155 IgV Fc (from UniProt P15151) (Fc fusion) | Fold ↑ to WT ECD [3]: 1.65; MFI at 100 nM [3]: 2940; MFI at 100 nM [4]: 4690; MFI at 100 nM [5]: 3270; MFI at 100 nM [6]: 4690
3 | 200000 | 59 | – | CTLA4-Fc (Fc fusion) | –
4 | 132 | 59 | – | Fc Control | RLU (IL-2-luciferase reporter) [9]: 624 RLU; RLU (IL-2-luciferase reporter) [10]: 624 RLU; RLU (IL-2-luciferase reporter) [11]: 624 RLU
5 | – | 112 | – | variant PD-L1 ECD-Fc G15A, I36T, M97L, K111E, H202Q (Fc fusion) | –
6 | 136 | 114 | 0 | variant PD-L1 ECD-Fc G15A, I36T, V129D (Fc fusion) | –
7 | – | 125 | 0 | variant PD-L1 ECD-Fc G15A, I36T, V129D, R195G (Fc fusion) | –
8 | 128 | – | 0.7 | variant PD-L1 ECD-Fc G15A, V129D (Fc fusion) | –
9 | 149 | 81 | 0 | variant PD-L1 ECD-Fc I36T, G52R, M97L, V112A, K144E, V175A, P198T (Fc fusion) | –
10 | 190 | 69 | 0 | variant PD-L1 ECD-Fc I36T, I46V, D55G, M97L, K106E, K144E, T185A, R195G (Fc fusion) | –
11 | 128 | 120 | 0 | variant PD-L1 ECD-Fc I36T, M97L, A103V, Q155H (Fc fusion) | –
12 | – | 830 | – | variant PD-L1 ECD-Fc K28I, S99G (Fc fusion) | –
13 | 155 | 190 | 0.1 | variant PD-L1 ECD-Fc L35P, I36S, M97L, K111E (Fc fusion) | –
14 | 143 | – | 0.7 | variant PD-L1 ECD-Fc M18V, I98L, L124S, P198T, L206F (Fc fusion) | –
15 | – | 69 | 0 | variant PD-L1 ECD-Fc M18V, M97L, F193S, R195G, E200K, H202Q (Fc fusion) | –
16 | 150 | – | 0.4 | variant PD-L1 ECD-Fc V93E, V129D (Fc fusion) | –
17 | 219 | – | 0.6 | variant PD-L1 ECD-Fc V129D, H202Q (Fc fusion) | Fold Change Compared to WT PD-L1 [7]: 1.6
18 | 152 | – | 1 | variant PD-L1 ECD-Fc V129D, P198T (Fc fusion) | –
19 | 142 | – | 0.6 | variant PD-L1 ECD-Fc V129D, T150A (Fc fusion) | –
20 | – | – | – | variant PD-L2 IgV-Fc H15Q, R76G, I85F (SEQ ID NO 680) (Fc fusion) | Fortebio binding to PD-1-Fc Response Units (Response Units) [12]: -0.038; Fold increase over wildtype PD-L2 IgV-Fc [13]: 0.3; MFI at 50 nM [13]: 2940
21 | – | – | – | variant PD-L2 IgV-Fc H15Q, R76G, I85F (SEQ ID NO 685) (Fc fusion) | Fortebio binding to PD-1-Fc Response Units (Response Units) [12]: -0.006; Fold increase over wildtype PD-L2 IgV-Fc [13]: 0.19; MFI at 50 nM [13]: 1890
